Data from doi:10.1101/2021.08.20.457084.
Values joined by “and” are separate entries in the source; they are usually repeats but may differ in a detail not shown here. Equal entries are not always repeated. Values belong to the substance of their own block, whether it stands above or below them.

How the values were obtained:
[1] = molecular target: glutamine synthetase CsGSIb from Camellia sinensis, wild type (Camellia sinensis); experiment: cryo-EM structure
[2] = molecular target: glutamine synthetase CsGSIb from Camellia sinensis, wild type (Camellia sinensis); experiment: cryo-EM structure; remark: listed apart in the source
[3] = molecular target: glutamine synthetase CsGSIb from Camellia sinensis, wild type (Camellia sinensis); experiment: negative-stain electron microscopy
[4] = molecular target: glutamine synthetase CsGSIb from Camellia sinensis, wild type (Camellia sinensis); experiment: AUC
[5] = molecular target: glutamine synthetase CsGSIb from Camellia sinensis, wild type (Camellia sinensis); experiment: SEC-MALS
[6] = molecular target: glutamine synthetase GmGSβ2 from Glycine max (Glycine max); experiment: cryo-EM structure
[7] = molecular target: glutamine synthetase GmGSβ2 from Glycine max (Glycine max); experiment: negative-stain electron microscopy
[8] = molecular target: glutamine synthetase GmGSβ2 from Glycine max (Glycine max); experiment: SEC-MALS
[9] = molecular target: CsGSIb I143L mutant (Camellia sinensis); experiment: AUC
[10] = molecular target: CsGSIb I143L mutant (Camellia sinensis); experiment: SEC-MALS
[11] = molecular target: CsGSIb EVK138DIQ mutant (Camellia sinensis); experiment: AUC
[12] = molecular target: CsGSIb EVK138DIQ mutant (Camellia sinensis); experiment: SEC-MALS

- stoichiometry N [1]: 10
- stoichiometry N [2]: 5
- stoichiometry N [3]: 5 and 10
- Kd [4]: 270 nM
- stoichiometry N [4]: 10 and 5
- percent of the protein in the decameric state [5]: 18%
- percent of the protein in the pentameric state [5]: 82%
- stoichiometry N [5]: 5 and 10
Substance: glutamine synthetase CsGSIb from Camellia sinensis, wild type (enzyme)

- stoichiometry N [6]: 10
- stoichiometry N [7]: 10
- stoichiometry N [8]: 10
Substance: glutamine synthetase GmGSβ2 from Glycine max (enzyme)

- Kd [9]: 10 nM
- percent of the protein in the decameric state [10]: > 95%
- stoichiometry N [10]: 10
Substance: CsGSIb I143L mutant (enzyme)

- Kd [11]: 40 nM
- percent of the protein in the decameric state [12]: 72%
- stoichiometry N [12]: 10
Substance: CsGSIb EVK138DIQ mutant (enzyme)
